How the values were obtained:
Test in all cases: holdup assay
Set-up in all cases: key: below the threshold = too weak to quantify, mostly under pKd 3.1 to 4
Settings in all cases: plain residues with an end cap or a label only (N-terminal biotin on a linker: ttds)
CARD14, Q9BXL6 = target: CARD14, Q9BXL6
PDZD9, Q8IXQ8 = target: PDZD9, Q8IXQ8
SIPA1L3, O60292 = target: T1, SIPA1L3, O60292
T1 sequence (O60292 961-1052, limits assumed, looked up): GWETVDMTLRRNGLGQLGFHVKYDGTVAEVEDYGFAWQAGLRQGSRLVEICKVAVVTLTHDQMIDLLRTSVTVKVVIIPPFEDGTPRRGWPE

PDZRN4_2, Q6ZMN7 = target: PDZRN4_2, Q6ZMN7
MPDZ_6, O75970 = target: T2, MPDZ_6, O75970
T2 sequence (O75970 1003-1099, limits assumed, looked up): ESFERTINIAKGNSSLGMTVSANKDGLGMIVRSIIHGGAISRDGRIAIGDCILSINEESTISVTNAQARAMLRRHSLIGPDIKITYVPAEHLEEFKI

PDZD2_3, O15018 = target: T3, PDZD2_3, O15018
T3 sequence (O15018 581-682, limits assumed, looked up): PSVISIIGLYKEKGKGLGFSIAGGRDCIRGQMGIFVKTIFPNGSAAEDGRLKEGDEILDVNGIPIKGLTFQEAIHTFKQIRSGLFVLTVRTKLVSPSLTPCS

PDZD8, Q8NEN9 = target: T4, PDZD8, Q8NEN9
T4 sequence (Q8NEN9 361-459, limits assumed, looked up): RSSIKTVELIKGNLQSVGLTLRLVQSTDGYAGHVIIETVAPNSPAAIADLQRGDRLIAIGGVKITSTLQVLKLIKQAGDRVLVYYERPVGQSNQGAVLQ

SYNPO2L, Q9H987 = target: T5, SYNPO2L, Q9H987
T5 sequence (Q9H987 1-98, limits assumed, looked up): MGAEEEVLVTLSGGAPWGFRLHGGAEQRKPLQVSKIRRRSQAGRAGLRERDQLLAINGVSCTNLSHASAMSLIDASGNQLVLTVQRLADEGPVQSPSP

MPDZ_13, O75970 = target: T6, MPDZ_13, O75970
T6 sequence (O75970 1982-2070, limits assumed, looked up): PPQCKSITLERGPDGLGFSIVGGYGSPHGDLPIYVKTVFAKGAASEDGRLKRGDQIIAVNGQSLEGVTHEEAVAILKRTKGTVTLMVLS

MAGI3_3, Q5TCQ9 = target: MAGI3_3, Q5TCQ9
GRIP1_1, Q9Y3R0 = target: T7, GRIP1_1, Q9Y3R0
T7 sequence (Q9Y3R0 48-146, limits assumed, looked up): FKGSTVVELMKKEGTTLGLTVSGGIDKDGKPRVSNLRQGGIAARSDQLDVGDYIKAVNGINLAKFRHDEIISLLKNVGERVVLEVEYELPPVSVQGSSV

LNX2_4, Q8N448 = target: T8, LNX2_4, Q8N448
T8 sequence (Q8N448 595-690, limits assumed, looked up): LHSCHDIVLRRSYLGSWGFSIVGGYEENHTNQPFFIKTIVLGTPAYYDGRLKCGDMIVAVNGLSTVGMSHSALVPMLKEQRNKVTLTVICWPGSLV

SHROOM2, Q13796 = target: T9, SHROOM2, Q13796
T9 sequence (Q13796 21-118, limits assumed, looked up): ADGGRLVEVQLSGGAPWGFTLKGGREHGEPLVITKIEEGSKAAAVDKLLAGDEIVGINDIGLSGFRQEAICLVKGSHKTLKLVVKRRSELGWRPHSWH

MPDZ_2, O75970 = target: T10, MPDZ_2, O75970
T10 sequence (O75970 252-347, limits assumed, looked up): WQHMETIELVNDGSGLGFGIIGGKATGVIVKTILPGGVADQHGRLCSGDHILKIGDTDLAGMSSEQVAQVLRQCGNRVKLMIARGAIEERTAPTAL

PREX2_2, Q70Z35 = target: T11, PREX2_2, Q70Z35
T11 sequence (Q70Z35 672-764, limits assumed, looked up): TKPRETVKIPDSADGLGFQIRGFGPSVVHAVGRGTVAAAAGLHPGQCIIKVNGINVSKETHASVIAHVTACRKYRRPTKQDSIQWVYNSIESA

MAGI1_5, Q96QZ7 = target: MAGI1_5, Q96QZ7
NHERF3_2, Q5T2W1 = target: T12, NHERF3_2, Q5T2W1
T12 sequence (Q5T2W1 129-225, limits assumed, looked up): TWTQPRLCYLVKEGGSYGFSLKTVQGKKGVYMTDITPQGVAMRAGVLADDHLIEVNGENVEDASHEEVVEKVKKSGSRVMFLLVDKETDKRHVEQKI

Inadl_7, Q8NI35 = target: Inadl_7, Q8NI35
PTPN13_2, Q12923 = target: PTPN13_2, Q12923
PDLIM4, P50479 = target: PDLIM4, P50479
PDLIM3, Q53GG5 = target: T13, PDLIM3, Q53GG5
T13 sequence (Q53GG5 1-94, limits assumed, looked up): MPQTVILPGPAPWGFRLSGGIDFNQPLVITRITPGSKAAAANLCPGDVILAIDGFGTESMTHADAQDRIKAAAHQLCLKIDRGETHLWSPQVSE

Q9NPB6 = target: Q9NPB6
PARD3B_2, Q8TEW8 = target: PARD3B_2, Q8TEW8
Q5TCQ9 = target: Q5TCQ9
Q9UDY2 = target: Q9UDY2

MAGI1_5, Q96QZ7, sequence (Q96QZ7 986-1098): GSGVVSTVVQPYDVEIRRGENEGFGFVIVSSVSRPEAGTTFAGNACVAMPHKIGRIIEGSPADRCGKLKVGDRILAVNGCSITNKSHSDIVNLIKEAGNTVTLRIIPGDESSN
PDZD9, Q8IXQ8, sequence (Q8IXQ8 23-120): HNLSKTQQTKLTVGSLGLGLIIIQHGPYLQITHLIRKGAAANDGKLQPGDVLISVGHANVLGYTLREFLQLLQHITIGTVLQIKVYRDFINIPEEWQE
CARD14, Q9BXL6, sequence (Q9BXL6 558-663): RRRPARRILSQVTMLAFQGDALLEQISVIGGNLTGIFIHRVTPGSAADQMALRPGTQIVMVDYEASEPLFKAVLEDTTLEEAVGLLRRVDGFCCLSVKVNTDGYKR
PTPN13_2, Q12923, sequence (Q12923 1363-1462): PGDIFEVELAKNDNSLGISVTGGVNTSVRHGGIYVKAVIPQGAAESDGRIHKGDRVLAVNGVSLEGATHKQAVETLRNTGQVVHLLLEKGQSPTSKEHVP
MAGI3_3, Q5TCQ9, sequence (Q5TCQ9 572-655): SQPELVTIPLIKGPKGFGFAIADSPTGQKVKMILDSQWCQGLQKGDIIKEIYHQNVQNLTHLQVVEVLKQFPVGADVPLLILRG
PARD3B_2, Q8TEW8, sequence (Q8TEW8 376-471): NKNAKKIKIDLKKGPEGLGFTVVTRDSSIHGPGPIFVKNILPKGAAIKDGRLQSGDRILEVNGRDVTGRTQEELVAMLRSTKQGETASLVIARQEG
Inadl_7, Q8NI35, sequence (Q8NI35 1219-1332): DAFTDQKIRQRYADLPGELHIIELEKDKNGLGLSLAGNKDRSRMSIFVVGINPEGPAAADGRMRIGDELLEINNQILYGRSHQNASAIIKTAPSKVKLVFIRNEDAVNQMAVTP
PDZRN4_2, Q6ZMN7, sequence (Q6ZMN7 389-498): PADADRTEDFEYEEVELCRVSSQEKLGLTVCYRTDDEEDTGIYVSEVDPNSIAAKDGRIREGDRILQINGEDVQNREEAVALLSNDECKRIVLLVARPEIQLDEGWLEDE
PDLIM4, P50479, sequence (P50479 1-83): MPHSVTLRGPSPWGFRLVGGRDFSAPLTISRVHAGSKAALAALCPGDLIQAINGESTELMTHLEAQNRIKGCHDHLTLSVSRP

## SRPQRTQTQV [HPV67-E6, A4U7F2]
CARD14, Q9BXL6
  pKd: below the threshold
PDZD9, Q8IXQ8
  pKd: below the threshold
SIPA1L3, O60292
  pKd: below the threshold
PDZRN4_2, Q6ZMN7
  pKd: below the threshold
MPDZ_6, O75970
  pKd: below the threshold
PDZD2_3, O15018
  pKd: below the threshold
PDZD8, Q8NEN9
  pKd: below the threshold
SYNPO2L, Q9H987
  pKd: below the threshold
MPDZ_13, O75970
  pKd: below the threshold
MAGI3_3, Q5TCQ9
  pKd: below the threshold
GRIP1_1, Q9Y3R0
  pKd: below the threshold
LNX2_4, Q8N448
  pKd: below the threshold
SHROOM2, Q13796
  pKd: below the threshold
MPDZ_2, O75970
  pKd: below the threshold
PREX2_2, Q70Z35
  pKd: below the threshold
MAGI1_5, Q96QZ7
  pKd: 4.35
NHERF3_2, Q5T2W1
  pKd: below the threshold
Inadl_7, Q8NI35
  pKd: 4.46
PTPN13_2, Q12923
  pKd: below the threshold
PDLIM4, P50479
  pKd: below the threshold
PDLIM3, Q53GG5
  pKd: below the threshold

## PKTPPTDTSV [KIR3DL3, Q8N743]
CARD14, Q9BXL6
  pKd: below the threshold
PDZD9, Q8IXQ8
  pKd: below the threshold
SIPA1L3, O60292
  pKd: below the threshold
PDZRN4_2, Q6ZMN7
  pKd: below the threshold
MPDZ_6, O75970
  pKd: below the threshold
PDZD2_3, O15018
  pKd: 4.08
PDZD8, Q8NEN9
  pKd: 4.36
SYNPO2L, Q9H987
  pKd: below the threshold
MPDZ_13, O75970
  pKd: below the threshold
MAGI3_3, Q5TCQ9
  pKd: below the threshold
Q9NPB6
  pKd: below the threshold
PARD3B_2, Q8TEW8
  pKd: 4.37
GRIP1_1, Q9Y3R0
  pKd: below the threshold
LNX2_4, Q8N448
  pKd: below the threshold
SHROOM2, Q13796
  pKd: below the threshold
Q5TCQ9
  pKd: below the threshold
Q9UDY2
  pKd: below the threshold
MPDZ_2, O75970
  pKd: below the threshold
PREX2_2, Q70Z35
  pKd: below the threshold
MAGI1_5, Q96QZ7
  pKd: below the threshold
NHERF3_2, Q5T2W1
  pKd: below the threshold
PTPN13_2, Q12923
  pKd: below the threshold
PDLIM4, P50479
  pKd: below the threshold
PDLIM3, Q53GG5
  pKd: below the threshold

## SSRTRRETQL [HPV16-E6, P03126]
CARD14, Q9BXL6
  pKd: below the threshold
PDZD9, Q8IXQ8
  pKd: 4.06
SIPA1L3, O60292
  pKd: below the threshold
PDZRN4_2, Q6ZMN7
  pKd: below the threshold
MPDZ_6, O75970
  pKd: below the threshold
PDZD2_3, O15018
  pKd: below the threshold
PDZD8, Q8NEN9
  pKd: below the threshold
SYNPO2L, Q9H987
  pKd: below the threshold
MPDZ_13, O75970
  pKd: below the threshold
MAGI3_3, Q5TCQ9
  pKd: below the threshold
PARD3B_2, Q8TEW8
  pKd: below the threshold
GRIP1_1, Q9Y3R0
  pKd: below the threshold
LNX2_4, Q8N448
  pKd: below the threshold
SHROOM2, Q13796
  pKd: below the threshold
MPDZ_2, O75970
  pKd: below the threshold
PREX2_2, Q70Z35
  pKd: below the threshold
MAGI1_5, Q96QZ7
  pKd: 4.69
NHERF3_2, Q5T2W1
  pKd: below the threshold
Inadl_7, Q8NI35
  pKd: below the threshold
PTPN13_2, Q12923
  pKd: below the threshold
PDLIM4, P50479
  pKd: below the threshold
PDLIM3, Q53GG5
  pKd: 3.88

## RSLEEEESQL [GRASP, Q7Z6J2]
CARD14, Q9BXL6
  pKd: below the threshold
PDZD9, Q8IXQ8
  pKd: below the threshold
SIPA1L3, O60292
  pKd: below the threshold
PDZRN4_2, Q6ZMN7
  pKd: below the threshold
MPDZ_6, O75970
  pKd: below the threshold
PDZD2_3, O15018
  pKd: below the threshold
PDZD8, Q8NEN9
  pKd: below the threshold
SYNPO2L, Q9H987
  pKd: below the threshold
MPDZ_13, O75970
  pKd: below the threshold
MAGI3_3, Q5TCQ9
  pKd: below the threshold
Q9NPB6
  pKd: below the threshold
PARD3B_2, Q8TEW8
  pKd: below the threshold
GRIP1_1, Q9Y3R0
  pKd: below the threshold
LNX2_4, Q8N448
  pKd: below the threshold
SHROOM2, Q13796
  pKd: below the threshold
Q5TCQ9
  pKd: below the threshold
Q9UDY2
  pKd: below the threshold
MPDZ_2, O75970
  pKd: below the threshold
PREX2_2, Q70Z35
  pKd: below the threshold
MAGI1_5, Q96QZ7
  pKd: below the threshold
NHERF3_2, Q5T2W1
  pKd: below the threshold
Inadl_7, Q8NI35
  pKd: below the threshold
PTPN13_2, Q12923
  pKd: below the threshold
PDLIM4, P50479
  pKd: below the threshold
PDLIM3, Q53GG5
  pKd: below the threshold

## SVWLRKETRV [CYSLTR2, Q9NS75]
CARD14, Q9BXL6
  pKd: below the threshold
PDZD9, Q8IXQ8
  pKd: below the threshold
SIPA1L3, O60292
  pKd: below the threshold
PDZRN4_2, Q6ZMN7
  pKd: below the threshold
MPDZ_6, O75970
  pKd: below the threshold
PDZD2_3, O15018
  pKd: below the threshold
PDZD8, Q8NEN9
  pKd: below the threshold
SYNPO2L, Q9H987
  pKd: below the threshold
MPDZ_13, O75970
  pKd: below the threshold
MAGI3_3, Q5TCQ9
  pKd: below the threshold
Q9NPB6
  pKd: below the threshold
PARD3B_2, Q8TEW8
  pKd: below the threshold
GRIP1_1, Q9Y3R0
  pKd: below the threshold
LNX2_4, Q8N448
  pKd: below the threshold
SHROOM2, Q13796
  pKd: 4.35
Q5TCQ9
  pKd: below the threshold
Q9UDY2
  pKd: below the threshold
MPDZ_2, O75970
  pKd: below the threshold
PREX2_2, Q70Z35
  pKd: below the threshold
MAGI1_5, Q96QZ7
  pKd: 4.57
NHERF3_2, Q5T2W1
  pKd: below the threshold
Inadl_7, Q8NI35
  pKd: below the threshold
PTPN13_2, Q12923
  pKd: below the threshold
PDLIM4, P50479
  pKd: below the threshold
PDLIM3, Q53GG5
  pKd: below the threshold

Reference: publication PMC9482650, “Quantitative fragmentomics allow affinity mapping of interactomes” (Nature Communications, 2022)
